Test [1] deals with T1, SR344 (N-terminal 1st to 344th amino acids of soluble human IL-6R) (human, UniProt P08887 20-344, limits assumed).
T1 construct: also called recombinant soluble IL-6 receptor; soluble human IL-6 receptor
T1 sequence (looked up): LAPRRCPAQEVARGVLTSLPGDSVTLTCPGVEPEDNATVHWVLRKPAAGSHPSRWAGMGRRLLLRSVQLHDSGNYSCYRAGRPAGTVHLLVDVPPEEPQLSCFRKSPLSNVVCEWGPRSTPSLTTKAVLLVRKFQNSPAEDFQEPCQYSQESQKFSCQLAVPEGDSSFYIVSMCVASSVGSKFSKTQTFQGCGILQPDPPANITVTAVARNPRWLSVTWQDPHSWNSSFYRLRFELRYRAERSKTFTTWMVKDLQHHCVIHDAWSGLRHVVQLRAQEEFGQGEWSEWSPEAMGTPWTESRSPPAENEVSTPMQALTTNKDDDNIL
Kind of test: SPR (Biacore T100), Protein A/G capture, SR344 as analyte, 37 C. (Surface plasmon resonance follows binding to a sensor surface in real time, without labels.)

The target of test [2] is T1, SR344 (N-terminal 1st to 344th amino …). Kind of test: SPR (Biacore T100), Protein A/G capture, SR344 at 0, 0.36 and 1.4 µg/ml, 15 min dissociation, 37 C.
The target is the same in test [3]. Kind of test: cell-based or functional assay.
Test [4] deals with T2, recombinant human IL-6R sR (R&D systems) (human, UniProt P08887 20-358).
T2 construct: Bought soluble receptor; also called rhIL-6sR; rhIL-s6R
T2 sequence (looked up): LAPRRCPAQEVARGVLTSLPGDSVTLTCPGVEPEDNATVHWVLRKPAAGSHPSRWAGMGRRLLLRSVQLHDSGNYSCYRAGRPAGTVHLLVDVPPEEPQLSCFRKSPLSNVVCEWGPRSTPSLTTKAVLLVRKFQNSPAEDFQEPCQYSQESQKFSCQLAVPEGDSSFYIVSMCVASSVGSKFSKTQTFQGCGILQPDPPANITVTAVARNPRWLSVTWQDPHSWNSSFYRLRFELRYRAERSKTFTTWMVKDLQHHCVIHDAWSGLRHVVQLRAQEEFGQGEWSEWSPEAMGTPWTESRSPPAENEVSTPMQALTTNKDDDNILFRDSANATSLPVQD
Description: SPR (Biacore T100), antibody captured on Protein A/G, antigen as analyte, 37 C. How it is done: (§1) The antigen-antibody interaction was measured by immobilizing purified Recomb Protein A/G (Pierce) (hereinafter “Protein A/G”) onto a sensor chip, binding various antibodies onto the chip, and then flowing the antigen as an analyte over the chip. Various concentrations of rhIL-6sR (R&D systems) and recombinant soluble IL-6 receptor (SR344 prepared in Example 1) were used as the antigen. The sugar chain structure of rhIL-6sR produced by baculovirus-infected insect cells is of high-mannose type. On the other hand, the sugar chain structure of SR344 produced by CHO cells is assumed to be of the complex sugar chain type with sialic acid at its end. Since the sugar chain structure of soluble IL-6 receptor in an actual human body is assumed to be of the complex sugar chain type with sialic acid at its end, SR344 is expected to have a structure closer to that of soluble IL-6 receptor in the human body. Thus, a comparison test between rhIL-6sR and SR344 was carried out in this experiment.
(§2) A sensor chip was prepared by immobilizing about 3,000 RU of Protein A/G onto CM5 (Biacore) with the amine coupling method. […] The running buffer used was HBS-EP+, and the flow rate was 20 μl/min. Each antibody was prepared so that about 100 RU of the antibody was bound to Protein A/G. For the analyte, rhIL-6sR was prepared at 0, 0.156, 0.313, and 0.625 μg/ml using HBS-EP+, while SR344 was adjusted to 0, 0.0654, 0.131, and 0.261 μg/ml. […] After three minutes of interaction, the solution was switched with HBS-EP+ (Biacore), and the dissociation phase was monitored for ten minutes. After measurement of the dissociation phase, the sensor chip was regenerated by washing with 10 μl of 10 mM glycine-HCl (pH 1.5). The association, dissociation, and regeneration constituted one analytic cycle. All experiments were carried out at 37° C.

Test [5] has as its target T1, SR344 (N-terminal 1st to 344th amino …). Described as above. As to the method: as §1, §2
Test [6] addresses T2, recombinant human IL-6R sR (R&D systems). Described as above. How it is done: as §2
(§3) The obtained sensorgrams were kinetically analyzed using Biacore T100 Evaluation Software, which is a data analysis software specific for Biacore (Table 3). […] All measurements described hereinafter in the Examples were carried out at 37° C. to kinetically analyze the antigen-antibody reaction using SR344 and protein A/G.
The source holds these as a separate data set.

Test [7] addresses T1, SR344 (N-terminal 1st to 344th amino …). The test is described as above. As to the method:
as §2, §3
This is another data set of the same source.

Test [8] has the same target. Description: SPR (Biacore T100), antibody captured on Protein A/G, SR344 as analyte, 37 C. As to the method: This measurement was carried out under the same conditions described in Example 2. The running buffer used was HBS-EP+, and the flow rate was 20 μl/min. Each antibody was prepared so that about 100 RU of the antibody was bound to Protein A/G. SR344 was prepared at 0, 0.065, 0.131, and 0.261 μg/ml using HBS-EP+ and used as an analyte. In the first step of the measurement, the antibody in solution was bound to Protein A/G, and the analyte solution was allowed to interact therewith. After three minutes of interaction, the solution was switched to HBS-EP+, and the dissociation phase was monitored for 10 or 15 minutes. After measurement of the dissociation phase, the sensor chip was regenerated by washing with 10 μl of 10 mM glycine-HCl (pH 1.5). The association, dissociation, and regeneration constitute one analysis cycle. Each antibody was measured according to this cycle.
The sensorgram was kinetically analyzed using the Biacore-specific data analysis software, Biacore T100 Evaluation Software.

Test [9] concerns the target T2, recombinant human IL-6R sR (R&D systems). Description: SPR (Biacore T100), antibody captured on Protein A, rhIL-6sR as analyte, 25 C. How it is done: The antigen-antibody interaction was measured by immobilizing 4,400 to 5,000 RU of rec-Protein A (Zymed) immobilized onto a sensor chip by the amine coupling method, binding various antibodies onto the chip, and then flowing the antigen over the chip as an analyte. For the antigen, various concentrations of rhIL-6sR were used. All measurements were carried out at 25° C. The kinetic parameters, association rate constant kₐ (1/Ms) and dissociation rate constant kd (1/s) were calculated from the sensorgrams obtained by measurement. Then, KD (M) was determined based on the rate constants. The respective parameters were determined using Biacore T100 Evaluation Software (Biacore).

B1: F2H/L39-IgG1 (antibody, V domains shown)
VH: QVQLQESGPGLVKPSETLSLTCAVSGYSISDDHAWSWVRQPPGEGLEWIGYISYSGITNYNPSLQDRVTISRDNSKNTLYLQMNSLRAEDTAVYYCARLLARATAMDYWGQGILVTVSS
VL: DIQMTQSPSSLSASVGDSVTITCQASEDISSYLNWYQQKPGKAPELLIYYGSELESGVPSRFSGSGSGTDFTFTISSLEAEDAATYYCGQGNRLPYTFGQGTKVEIER
By Kd is commonly meant the concentration at which binding is half-saturated. By koff is commonly meant the rate constant with which the complex falls apart. A word on the kon: it is the rate constant with which the complex forms. With B1, in [1], the “ka relative to PF1-IgG1” value was roughly 0.5 fold. In test [2], this molecule gave a Kd of 52 pM, a koff of 4e-05 s⁻¹ and a kon of 770000 M⁻¹ s⁻¹. In addition, in test [3], the “BaF3/gp130 neutralizing activity, 100% inhibitory concentration against WT” value is no less than 100 fold.

B2: RDC-23 (antibody, V domains shown)
VH: QVQLQESGPGLVRPSQTLSLTCTVSGYSITSDHAWSWVRQPPGRGLEWIGYISYSGITTYNPSLKSRVTMLRDTSKNQFSLRLSSVTAADTAVYYCARVLARITAMDYWGQGSLVTVSS
VL: DIQMTQSPSSLSASVGDRVTITCRASQDISSYLNWYQQKPGKAPKLLIYYTSRLHSGVPSRFSGSGSGTDFTFTISSLQPEDIATYYCGQGNRLPYTFGQGTKVEIK
notes: also called RDC-5H/RDC-11L
For B2, the Kd in test [4] amounted to 28 pM; in test [5] it was 67 pM; in [8], 67 pM; in [9] it was 25 pM. The koff in [4] came out at 4.5e-05 s⁻¹; in [5], 4.3e-05 s⁻¹; in test [8], 4.3e-05 s⁻¹; in test [9] it was 3.1e-05 s⁻¹. Besides, the association rate constant (kon) in test [4] was found to be 1.6e+06 M⁻¹ s⁻¹; in test [5] it was 640000 M⁻¹ s⁻¹; in test [8] it was 640000 M⁻¹ s⁻¹; in test [9], 1.2e+06 M⁻¹ s⁻¹. For the same molecule, the “fold improved affinity against WT” value in [6] and in test [7] was 40 to 60 fold in each case. Moreover, the “BaF3/gp130 neutralizing activity, 100% inhibitory concentration against WT” value in [3] was roughly 100 fold.

The record behind these values is patent US20150284465A1 (Chugai, published 2015).
